According to IntAct's records for PubMed 28712572:

These substances were tested against gbrap_human GABARAP (UniProt O95166).
Sequence of gbrap_human GABARAP (O95166 whole entry): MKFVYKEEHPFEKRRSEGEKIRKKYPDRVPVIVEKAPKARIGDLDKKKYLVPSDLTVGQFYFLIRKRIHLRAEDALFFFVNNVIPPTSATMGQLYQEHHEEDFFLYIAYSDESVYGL

Row | Substance | effect of a mutation on the interaction
1 | Pericentriolar material 1 protein (Homo sapiens), Q15154 K1957C | with no effect
2 | Pericentriolar material 1 protein (Homo sapiens), Q15154 K1957D | with no effect
3 | Pericentriolar material 1 protein (Homo sapiens), Q15154 K1957F | with no effect
4 | Pericentriolar material 1 protein (Homo sapiens), Q15154 K1957G | with no effect
5 | Pericentriolar material 1 protein (Homo sapiens), Q15154 K1957M | with no effect
6 | Pericentriolar material 1 protein (Homo sapiens), Q15154 K1957S | with no effect
7 | Pericentriolar material 1 protein (Homo sapiens), Q15154 K1957V | with no effect
8 | Pericentriolar material 1 protein (Homo sapiens), Q15154 K1965C | with no effect
9 | Pericentriolar material 1 protein (Homo sapiens), Q15154 K1965D | with no effect
10 | Pericentriolar material 1 protein (Homo sapiens), Q15154 K1965E | with no effect
11 | Pericentriolar material 1 protein (Homo sapiens), Q15154 K1965H | with no effect
12 | Pericentriolar material 1 protein (Homo sapiens), Q15154 K1965L | with no effect
13 | Pericentriolar material 1 protein (Homo sapiens), Q15154 K1965Q | with no effect
14 | Pericentriolar material 1 protein (Homo sapiens), Q15154 K1965R | with no effect
15 | Pericentriolar material 1 protein (Homo sapiens), Q15154 K1965W | with no effect
16 | Pericentriolar material 1 protein (Homo sapiens), Q15154 K1965Y | with no effect
17 | Pericentriolar material 1 protein (Homo sapiens), Q15154 K1972C | with no effect
18 | Pericentriolar material 1 protein (Homo sapiens), Q15154 K1972D | with no effect
19 | Pericentriolar material 1 protein (Homo sapiens), Q15154 K1972L | with no effect

Results, then the substance that gave them:

Row | effect of a mutation on the interaction | Substance
20 | with no effect | Pericentriolar material 1 protein (Homo sapiens), Q15154 K1957E
21 | with no effect | Pericentriolar material 1 protein (Homo sapiens), Q15154 K1957H
22 | with no effect | Pericentriolar material 1 protein (Homo sapiens), Q15154 K1957I
23 | with no effect | Pericentriolar material 1 protein (Homo sapiens), Q15154 K1957L
24 | with no effect | Pericentriolar material 1 protein (Homo sapiens), Q15154 K1957N
25 | with no effect | Pericentriolar material 1 protein (Homo sapiens), Q15154 K1957P
26 | with no effect | Pericentriolar material 1 protein (Homo sapiens), Q15154 K1957Q
27 | with no effect | Pericentriolar material 1 protein (Homo sapiens), Q15154 K1957R
28 | with no effect | Pericentriolar material 1 protein (Homo sapiens), Q15154 K1957T
29 | with no effect | Pericentriolar material 1 protein (Homo sapiens), Q15154 K1957W
30 | with no effect | Pericentriolar material 1 protein (Homo sapiens), Q15154 K1957Y
31 | with no effect | Pericentriolar material 1 protein (Homo sapiens), Q15154 K1965A
32 | with no effect | Pericentriolar material 1 protein (Homo sapiens), Q15154 K1965F
33 | disrupting interaction strength | Pericentriolar material 1 protein (Homo sapiens), Q15154 K1965G
34 | with no effect | Pericentriolar material 1 protein (Homo sapiens), Q15154 K1965I
35 | with no effect | Pericentriolar material 1 protein (Homo sapiens), Q15154 K1965M
36 | with no effect | Pericentriolar material 1 protein (Homo sapiens), Q15154 K1965N
37 | disrupting interaction strength | Pericentriolar material 1 protein (Homo sapiens), Q15154 K1965P
38 | with no effect | Pericentriolar material 1 protein (Homo sapiens), Q15154 K1965S
39 | with no effect | Pericentriolar material 1 protein (Homo sapiens), Q15154 K1965T
40 | with no effect | Pericentriolar material 1 protein (Homo sapiens), Q15154 K1965V
41 | with no effect | Pericentriolar material 1 protein (Homo sapiens), Q15154 K1972A
42 | with no effect | Pericentriolar material 1 protein (Homo sapiens), Q15154 K1972E
43 | with no effect | Pericentriolar material 1 protein (Homo sapiens), Q15154 K1972F
44 | with no effect | Pericentriolar material 1 protein (Homo sapiens), Q15154 K1972G
45 | with no effect | Pericentriolar material 1 protein (Homo sapiens), Q15154 K1972H
46 | with no effect | Pericentriolar material 1 protein (Homo sapiens), Q15154 K1972I
